{"source": "paper PMC4456239", "experiment_in_all_cases": "other fluorescence titration", "key": {"[1]": {"molecular_target": "recombinant His-tagged human cyclin A2 (sequence 174-432) (human) (UniProt P20248)", "sequence (P20248 174-432)": "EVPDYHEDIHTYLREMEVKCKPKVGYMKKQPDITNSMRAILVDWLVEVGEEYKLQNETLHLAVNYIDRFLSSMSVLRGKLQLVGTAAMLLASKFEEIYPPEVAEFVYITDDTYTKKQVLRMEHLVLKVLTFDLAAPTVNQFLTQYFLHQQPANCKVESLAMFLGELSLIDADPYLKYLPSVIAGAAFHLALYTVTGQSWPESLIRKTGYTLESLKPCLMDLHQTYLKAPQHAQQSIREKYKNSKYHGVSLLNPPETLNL"}, "[2]": {"molecular_target": "recombinant His-tagged human cyclin A2 (sequence 174-432) (human) (UniProt P20248)", "remark": "listed apart in the source"}, "[3]": {"molecular_target": "recombinant His-tagged human cyclin A2 (sequence 174-432) (human) (UniProt P20248)", "remark": "listed apart in the source"}, "[4]": {"molecular_target": "recombinant His-tagged human cyclin A2 (sequence 174-432) (human) (UniProt P20248)", "remark": "listed apart in the source"}, "[5]": {"molecular_target": "recombinant His-tagged human cyclin A2 (sequence 174-432) (human) (UniProt P20248)", "remark": "listed apart in the source"}, "[6]": {"molecular_target": "recombinant His-tagged human cyclin A2 (sequence 174-432) (human) (UniProt P20248)", "remark": "listed apart in the source"}, "[7]": {"molecular_target": "recombinant His-tagged human cyclin A2 (sequence 174-432) (human) (UniProt P20248)", "remark": "listed apart in the source"}}, "note": "Read-outs that look alike come from different tables or passages of the source. *: point of attachment. X2 = 4‑((4-methylpiperazin-1-yl)methyl)benzoic acid, CN1CCN(Cc2ccc(C(=O)*)cc2)CC1"}
{"binder": "X2-RLIF-NH2", "note": "[SCCP5921: 4-((4-methylpiperazin-1-yl)methyl)benzoic acid ligated to the p21 C-terminus, RLIF]", "values": [{"measurement": "Kd", "setting": "[1]", "result": 4.77, "unit": "µM"}, {"measurement": "Kd", "setting": "[2]", "result": 5.44, "unit": "µM"}, {"measurement": "Kd", "setting": "[3]", "result": 6.59, "unit": "µM"}, {"measurement": "Kd", "setting": "[4]", "result": 6.77, "unit": "µM"}, {"measurement": "Kd", "setting": "[5]", "result": 5.28, "unit": "µM"}, {"measurement": "Kd", "setting": "[6]", "result": 3.55, "unit": "µM"}, {"measurement": "Kd", "setting": "[7]", "result": 3.21, "unit": "µM"}]}
